Experimental data taken from PMC12455949 (Journal of Virology, 2025).
Values joined by “and” are separate entries in the source; they are usually repeats but may differ in a detail not shown here. Equal values may be shown once.

Assays:
Assay in all cases: BLI
Settings in all cases: both partners purified
[1] = molecular target: COBRA HA J4, recombinant soluble (rHA) (Influenza A virus H3, designed COBRA J4)
[2] = molecular target: A/Switzerland/9715293/2013 HA, recombinant soluble (rHA) (Influenza A virus …, strain)
[3] = molecular target: A/Texas/50/2012 HA, recombinant soluble (rHA) (Influenza A virus A/Texas/50/2012 (H3N2), UniProt R4L1D1, strain)
[4] = molecular target: A/Perth/16/2009 HA, recombinant soluble (rHA) (Influenza A virus A/Perth/16/2009 (H3N2), UniProt C6KNH7, strain)
[5] = molecular target: COBRA HA TJ2, recombinant soluble (rHA) (Influenza A virus H3, designed COBRA TJ2)
[6] = molecular target: A/Panama/2007/1999 HA, recombinant soluble (rHA) (Influenza A virus A/Panama/2007/1999 …, UniProt Q1K9M3, strain)
[7] = molecular target: A/Port Chalmers/1/1973 HA, recombinant soluble (rHA) (Influenza A virus A/Port …, UniProt Q1PUD9, strain)
[8] = molecular target: COBRA HA NG2, recombinant soluble (rHA) (Influenza A virus H3, designed COBRA NG2)
[9] = molecular target: A/Switzerland/9715293/2013 HA (Influenza A virus …, strain)
A/Texas/50/2012 HA = A/Texas/50/2012 HA (Influenza A virus A/Texas/50/2012 (H3N2), UniProt R4L1D1, strain)
A/Victoria/361/2011 HA = A/Victoria/361/2011 HA (Influenza A virus A/Victoria/361/2011 …, UniProt A0A097PF39, strain)
A/Perth/16/2009 HA = A/Perth/16/2009 HA (Influenza A virus A/Perth/16/2009 (H3N2), UniProt C6KNH7, strain)
A/Panama/2007/1999 HA = A/Panama/2007/1999 HA (Influenza A virus A/Panama/2007/1999 …, UniProt Q1K9M3, strain)
[10] = molecular target: A/Port Chalmers/1/1973 HA (Influenza A virus A/Port …, UniProt Q1PUD9, strain)
[11] = molecular target: A/Victoria/361/2011 HA, recombinant soluble (rHA) (Influenza A virus A/Victoria/361/2011 …, UniProt A0A097PF39, strain)

B1: mAb #1664 (antibody, V domains shown)
VH: EVQVMQSGAEARMTGATVKISCKASGYTFSDYFLHWVKQAPGKGLEWMGLVDVDNGEVRYAEKFQGRVTITADTSTETAYLEMTTVTSGDTAVYYCASTTPRGGNPSVYNYFFVDVWGKGTTVTVSS
VL: QPVLTQSSSASASLGSSVKLTCTLSSGHDNYIIAWHQQQPGKAPRYLMQVGAGGTYNKGSGVPHRFSGSSSGADRYLTISNLQSDDEADYYCETWDSKTVFGGGTTLTVL
notes: copies: 2 + 2
For B1, the Kd [1] was 12800 pM and 17700 pM, the Kd [2] was 286000 pM and 222000 pM and the Kd [3] was 730 pM and 1130 pM. The Kd [4] was 420 pM and 200 pM, the Kd [5] was 470 pM and 430 pM and the Kd [6] was 18200 pM and 14700 pM. The binding result [7] was “no binding (tested: 1350 nM)” and the Kd [8] was 135000 pM and 143000 pM.

B2: mAb #1664 (antibody, V domains shown)
VH: EVQVMQSGAEARMTGATVKISCKASGYTFSDYFLHWVKQAPGKGLEWMGLVDVDNGEVRYAEKFQGRVTITADTSTETAYLEMTTVTSGDTAVYYCASTTPRGGNPSVYNYFFVDVWGKGTTVTVSS
VL: QPVLTQSSSASASLGSSVKLTCTLSSGHDNYIIAWHQQQPGKAPRYLMQVGAGGTYNKGSGVPHRFSGSSSGADRYLTISNLQSDDEADYYCETWDSKTVFGGGTTLTVL
B2 showed a Kd [9] of 254000 pM, a koff [9] of 0.00379 s⁻¹ and a kon [9] of 15000 M⁻¹ s⁻¹. It also gave a Kd (A/Texas/50/2012 HA) of 930 pM, a koff (A/Texas/50/2012 HA) of 9.08e-05 s⁻¹ and a kon (A/Texas/50/2012 HA) of 98300 M⁻¹ s⁻¹. The Kd (A/Victoria/361/2011 HA) was 840 pM, the koff (A/Victoria/361/2011 HA) was 8.98e-05 s⁻¹ and the kon (A/Victoria/361/2011 HA) was 119000 M⁻¹ s⁻¹. For the same binder, the Kd (A/Perth/16/2009 HA) was 310 pM, the koff (A/Perth/16/2009 HA) was 3.36e-05 s⁻¹ and the kon (A/Perth/16/2009 HA) was 108000 M⁻¹ s⁻¹. The Kd (A/Panama/2007/1999 HA) was 16400 pM, the koff (A/Panama/2007/1999 HA) was 0.00179 s⁻¹ and the kon (A/Panama/2007/1999 HA) was 109000 M⁻¹ s⁻¹. B2: no binding (tested: 100 nM rHA (exploratory assays)) [10].

B3: mAb TJ5-1 (antibody, V domains shown)
VH: EVQLVQSGAEVKKPGASVKVSCKASGYTFTGFYLHWVRQAPGQGLEWMGWINPHSGDTDFAQKFQGKVTMTRDTSSNTVYMDVNRLTSDDTAVYYCVKNDIVLGMGVWGQGTTVIVSS
VL: QSVLTQPPSVSGAPGQRVTISCTGSSSNIGAGYNVYWFQQLPPTAPKLLNYGDNNRPSGVPDRFSASKSGTSASLAITGLQAEDEAEYYCQSYDSSLNAYVFGTGTKVTVL
For B3, the Kd [1] was 300 pM and 160 pM, the Kd [2] was 590 pM and 670 pM and the Kd [3] was 210 pM and 390 pM. The Kd [11] was 620 pM and 1100 pM, the Kd [4] was 130 pM and 140 pM and the Kd [5] was 3280 pM and 8010 pM. The Kd [6] was 150 pM and 170 pM and the Kd [7] was 7130 pM and 13100 pM.

B4: mAb TJ5-1 (antibody, V domains shown)
VH: EVQLVQSGAEVKKPGASVKVSCKASGYTFTGFYLHWVRQAPGQGLEWMGWINPHSGDTDFAQKFQGKVTMTRDTSSNTVYMDVNRLTSDDTAVYYCVKNDIVLGMGVWGQGTTVIVSS
VL: QSVLTQPPSVSGAPGQRVTISCTGSSSNIGAGYNVYWFQQLPPTAPKLLNYGDNNRPSGVPDRFSASKSGTSASLAITGLQAEDEAEYYCQSYDSSLNAYVFGTGTKVTVL
In the case of B4, the Kd [9] is reported as 630 pM, the koff [9] is reported as 0.00019 s⁻¹ and the kon [9] is reported as 303000 M⁻¹ s⁻¹. For the same binder, the Kd (A/Texas/50/2012 HA) was 300 pM, the koff (A/Texas/50/2012 HA) was 8.93e-05 s⁻¹ and the kon (A/Texas/50/2012 HA) was 307000 M⁻¹ s⁻¹. The Kd (A/Victoria/361/2011 HA) was 860 pM, the koff (A/Victoria/361/2011 HA) was 0.000195 s⁻¹ and the kon (A/Victoria/361/2011 HA) was 228000 M⁻¹ s⁻¹. It also gave a Kd (A/Perth/16/2009 HA) of 140 pM, a koff (A/Perth/16/2009 HA) of 3.66e-05 s⁻¹ and a kon (A/Perth/16/2009 HA) of 266000 M⁻¹ s⁻¹. The Kd (A/Panama/2007/1999 HA) was 160 pM, the koff (A/Panama/2007/1999 HA) was 4.97e-05 s⁻¹ and the kon (A/Panama/2007/1999 HA) was 315000 M⁻¹ s⁻¹.

B5: mAb TJ5-13 (antibody, V domains shown)
V domain 1: QVQLVQSGAEVKKPGSSVKVSCEASGDTFTTYSGINWVRQAPGQGLEWMGGVLPNFGSPNYAQRFQGRITITVDRSTSLVHMELTNLRSDDTAVYYCTETGAYNSVGYFPYFQFRGQGTLVSVSS
V domain 2: QSVLTQPPSVSGAPGQRVTISCTGSSSNIGADYDVHWYQQLPGTAPKLLIFGNNNRPSGVPDRFSGSKSGTSASLAITGLQAEDEADYYCQSFDKSLSGSFVFGTGTKVTGQ
B5 was tested, and the Kd [1] was 130 pM and 390 pM, the Kd [2] was 1320 pM and 2090 pM and the Kd [11] was 390 pM and 800 pM. For the same binder, the Kd [4] was 220 pM and 330 pM, the Kd [6] was 1880 pM and 3480 pM and the binding result [7] was “no binding (tested: 1350 nM)”. The Kd [8] was 2340 pM and 6810 pM.

B6: mAb TJ5-13 (antibody, V domains shown)
V domain 1: QVQLVQSGAEVKKPGSSVKVSCEASGDTFTTYSGINWVRQAPGQGLEWMGGVLPNFGSPNYAQRFQGRITITVDRSTSLVHMELTNLRSDDTAVYYCTETGAYNSVGYFPYFQFRGQGTLVSVSS
V domain 2: QSVLTQPPSVSGAPGQRVTISCTGSSSNIGADYDVHWYQQLPGTAPKLLIFGNNNRPSGVPDRFSGSKSGTSASLAITGLQAEDEADYYCQSFDKSLSGSFVFGTGTKVTGQ
Work on B6 yielded a Kd [9] of 1710 pM, a koff [9] of 0.000166 s⁻¹ and a kon [9] of 98600 M⁻¹ s⁻¹. For the same binder, the Kd (A/Texas/50/2012 HA) was 420 pM, the koff (A/Texas/50/2012 HA) was 9.53e-05 s⁻¹ and the kon (A/Texas/50/2012 HA) was 257000 M⁻¹ s⁻¹. The Kd (A/Victoria/361/2011 HA) was 590 pM, the koff (A/Victoria/361/2011 HA) was 0.000128 s⁻¹ and the kon (A/Victoria/361/2011 HA) was 218000 M⁻¹ s⁻¹. It also gave a Kd (A/Perth/16/2009 HA) of 270 pM, a koff (A/Perth/16/2009 HA) of 6.03e-05 s⁻¹ and a kon (A/Perth/16/2009 HA) of 226000 M⁻¹ s⁻¹. It also gave a Kd (A/Panama/2007/1999 HA) of 1140 pM, a koff (A/Panama/2007/1999 HA) of 0.000304 s⁻¹ and a kon (A/Panama/2007/1999 HA) of 114000 M⁻¹ s⁻¹. B6: no binding (tested: 100 nM rHA (exploratory assays)) [10].
